Experimental data: publication PMC5703946, “Modification and functional adaptation of the MBF1 gene family in the lichenized fungus Endocarpon pusillum under environmental stress” (Scientific Reports, 2017)

Target: T1, His-yTBP (yeast TATA-box-binding protein) (S. cerevisiae, UniProt P13393 1-240)
T1 sequence (looked up): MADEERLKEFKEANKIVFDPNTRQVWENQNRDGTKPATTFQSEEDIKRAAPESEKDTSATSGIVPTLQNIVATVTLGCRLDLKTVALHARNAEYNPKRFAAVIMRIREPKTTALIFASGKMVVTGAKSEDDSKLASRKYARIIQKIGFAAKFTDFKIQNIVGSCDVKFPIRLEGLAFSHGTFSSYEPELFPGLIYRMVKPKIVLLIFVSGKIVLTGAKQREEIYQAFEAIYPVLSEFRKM
Experiment: pull-down; His-yTBP held on Ni-NTA agarose beads (from soluble E. coli lysate, washed three times); equal amounts of purified GST-MBF1 proteins or purified GST incubated with the beads for 4 h at 4 °C; beads washed three times; detected by immunoblot (Wes) with anti-His and anti-GST antibodies
Conditions: both partners purified

binding result: binds
B1: GST-yMBF1 (Saccharomyces cerevisiae multiprotein-bridging factor 1) (natural protein, S. cerevisiae, UniProt O14467 1-151, looked up)
chain: MSDWDTNTIIGSRARAGGSGPRANVARSQGQINAARRQGLVVSVDKKYGSTNTRGDNEGQRLTKVDRETDIVKPKKLDPNVGRAISRARTDKKMSQKDLATKINEKPTVVNDYEAARAIPNQQVLSKLERALGVKLRGNNIGSPLGAPKKK
notes: MBF1 of Saccharomyces cerevisiae (amino acids 1 to 151 by the domain limits in the methods); source: E. coli BL21, purified (glutathione agarose beads, eluted)
